Where a chain is given by its changes, count along the chain named. Where only a bound is given, the exact number is not on record here.

Assay [1] deals with T1, human CCL2 (MCP1) - wild type (wt) (human, UniProt P13500 24-99).
T1 construct: Made in-house or bought (R&D Systems 279-MC), depending on the assay; can form dimers; also called wt human CCL2; WT human CCL2
Briefly: SPR T200, 25 C, anti-human Fc capture, 1:1 model, pH 7.9. Here is the method: (§1) An antibody capture system was established. 13000 MAb<h-Fc-pan>M-R10Z8E9-IgG (Roche) were immobilized at 25° C. at 18 μg/ml in 10 mM sodium acetate buffer pH 5.0, by EDC/NHS coupling as described by the manufacturer. The capture system was regenerated by an injection at 20 μl/min with HBS buffer (100 mM HEPES pH 7.4, 1.5 M NaCl, 0.05% (w/v) Tween 20), followed by a 1 min 15 see injection with 10 mM NaOH and two 10 mM glycine buffer pH 2.5 injections for 1 min. Antibodies were captured were injected for 30 see at 10 μl/min at 80 nM concentration diluted in the respective system buffer. […] The analyte contact time was 3 min and the dissociation time was 10 min. Analyte kinetics were performed at 50 μl/min.
(§2) The Biaevaluation software V.3.0 was used according to the instructions of the manufacturer GEHC. A 1:1 binding model with RMAX local was applied to determine kinetic rates.

For assay [2], the target named is T1, human CCL2 (MCP1) - wild type (wt). Briefly: SPR T200, 25 C, anti-human Fc capture, 1:1 model, pH 6.7.
Assay [3] addresses T2, human CCL8 (MCP2) - wild type (wt) (human, UniProt P80075 24-99).
T2 construct: also called huCCL8
T2 sequence: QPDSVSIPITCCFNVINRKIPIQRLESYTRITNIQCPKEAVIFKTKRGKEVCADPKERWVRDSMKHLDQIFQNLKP
The experiment in a line: SPR (Biacore T200), 25 °C, ACES pH 7.4; antibody captured on anti-human IgG (Fc), chemokine injected at 5 nM and 20 nM. How it is done: (§3) Biacore assay method: The binding of anti-CCL2 antibodies to the CCL homologs e.g. CCL2 (MCP-1), CCL8 (MCP-2), CCL7 (MCP-3), and CCL13 (MCP-4) were assessed at 25° C. using Biacore T200 instrument (GE Healthcare). Mouse anti-human IgG (Fc) (GE Healthcare) was immobilized on each flow cells of a CM4 sensor chip using amine coupling kit (GE Healthcare) according to the recommended settings by the manufacturer. Antibodies and analytes were diluted into ACES pH 7.4 buffer (20 mM ACES, 150 mM NaCl, 1 mg/ml BSA, 0.05% Tween 20, 0.005% NaN3). Antibodies were captured onto the anti-Fc sensor surfaces, then recombinant human CCL homologs proteins was injected over the flow cell at 5 nM and 20 nM. […] Sensor surface was regenerated each cycle with 3M MgCl2. Binding sensorgram was processed using Biacore T200 Evaluation software, version 2.0 (GE Healthcare).
In general terms: In SPR one partner is held on a chip, and binding of the other changes the refractive index at the surface.

The target of assay [4] is T3, human CCL7 (MCP3) - wild type (wt) (human, UniProt P80098 24-99).
T3 construct: Bought from R&D Systems for the homolog assay
The description is as above. Here is the method:
as §3

Assay [5] concerns the target T1, human CCL2 (MCP1) - wild type (wt). The experiment in a line: cell-based or functional assay.
For assay [6] the target is unchanged. The experiment in a line: SPR T200, 25 C, anti-human Fc capture, 1:1 model, pH 5.5. Here is the method: as §1, §2
Assay [7] has the same target. Briefly: SPR T200, 37 C, antibody captured, 1:1 model. Put shortly:
(§4)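 Antibodies from clone supernatants were captured for 1 min, then wild-type or monomeric P8A CCL2 was injected at up to 90 nM at 30 μl/min. Association lasted 3 min and dissociation 10 min. Kinetic rates were fitted with local Rmax.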

In assay [8] the target is T4, human CCL2 (MCP1) - P8A variant (human, UniProt P13500 24-99).
T4 construct: In-house point mutant that cannot dimerise; also called monomeric human CCL2; monomeric CCL2
The experiment in a line: SPR T200, 37 C, antibody captured, 1:1 model. Put shortly: as §4

In assay [9] the target is T1, human CCL2 (MCP1) - wild type (wt). The experiment in a line: SPR T200, 25 C, anti-human Fc capture, 1:1 model, pH 8.3. Here is the method:
as §1, §2

Assay [10] has the same target. Briefly: cell-based or functional assay. This is another data set of the same source.
Assay [11] has the same target. Briefly: SPR T200, 25 C, anti-human Fc capture, 1:1 model, pH 7.4. How it is done:
as §1, §2

The target is the same in assay [12]. Briefly: SPR T200, 25 C, anti-human Fc capture, 1:1 model, pH 6.3.
Assay [13] shares this target. The experiment in a line: SPR T200, 25 C, anti-human Fc capture, 1:1 model, pH 5.9. How it is done:
as §1, §2

The target is the same in assay [14]. Briefly: SPR T200, 25 C, anti-human Fc capture, 1:1 model, pH 8.3; pH 8.3.
Assay [15] shares this target. Briefly: SPR T200, 25 C, anti-human Fc capture, 1:1 model, pH 7.1. Here is the method:
as §1, §2

Assay [16] addresses T4, human CCL2 (MCP1) - P8A variant. Briefly: SPR T200, 37 C, anti-human Fc capture, 1:1 model, pH 5.8. How it is done: (§5) Anti-human Fc (GE Healthcare) was immobilized on each flow cells of a CM4 sensor chip using amine coupling kit (GE Healthcare) according to the recommended settings by the manufacturer. Antibodies and analytes were diluted into ACES pH 7.4 or pH 5.8 buffer (20 mM ACES, 150 mM NaCl, 1 mg/ml BSA, 0.05% Tween 20, 0.005% NaN3). […] Sensor surface was regenerated each cycle with 3M MgCl2.

For assay [17] the target is unchanged. The experiment in a line: SPR T200, 37 C, anti-human Fc capture, 1:1 model, pH 7.4. How it is done: as §5
Assay [18] has the same target. Briefly: SPR T200, 37 C. Here is the method: as §5
The target of assay [19] is T5, human CCL8 (MCP2) - P8A variant (human, UniProt P80075 24-99).
T5 construct: Proline 8 of mature CCL8 (NP_005614.2) mutated to alanine; also called monomeric human CCL8; CCL8 P8A variant (monomer)
T5 chain: T2 sequence with P8A
Briefly: SPR T200, 37 C, anti-human Fc capture, 1:1 model, pH 7.4; pH 7.4. Here is the method: as §5

Assay [20] has as its target T4, human CCL2 (MCP1) - P8A variant. The experiment in a line: SPR (Biacore T200), 37 °C, ACES pH 7.4; antibody captured on anti-human Fc, monomeric human CCL2 at 8 nM; response normalised to capture level. How it is done:
as §5

B1: Humanized 11K2 (=11K2) (antibody, IgG1, V domains shown)
VH: QVQLVQSGAEVKKPGSSVKVSCKASGLTISDTYMHWVRQAPGQGLEWMGRIDPANGNTKFDPKFQGRVTITADTSTSTAYMELSSLRSEDTAVYYCARGVFGFFDYWGQGTTVTVSS
VL: DIQMTQSPSSLSASVGDRVTITCKATEDIYNRLAWYQQKPGKAPKLLISGATSLETGVPSRFSGSGSGTDYTLTISSLQPEDFATYYCQQFWSAPYTFGGGTKVEIK
notes: IgG1 with kappa light chain; also called CCL2-0002; humanized 11k2 IgG1
Broadly, the Kd is the constant that tells how readily two partners part at equilibrium. A high value points to weaker binding. As for B1, the Kd in assay [1] was 0.02 nM; in assay [2] it was 0.01 nM; in assay [6], 0.01 nM; in [7] it was 0.028 nM; in assay [8], 0.035 nM; in [11] it was 0.02 nM. The Kd in assay [12] was 0.003 nM; in assay [13], 0.01 nM; in assay [14], at most 0.003 nM; in [15] it was 0.01 nM. The “t 1/2-diss.” value in [1] was found to be 2.75 h; in assay [2], 4.87 h; in assay [6], 1.97 h; in assay [9] it was 19.2 h; in assay [11] it was 2.72 h; in [12] it was 19.2 h. For the same molecule, the “t 1/2-diss.” value turned out to be 4.78 h in assay [13] and 3.58 h in assay [15]. Besides, the binding result in [3] is recorded as “binds”; in [4] it was “no binding (tested: 20 nM)”. In assay [5], the “IC50, inhibition of THP-1 migration (chemotaxis assay)” value came out at 0.7 µg/mL. The “T1/2” value in assay [7] was found to be 1.97 h; in assay [8] it was 1.93 h. Moreover, in assay [10], the “THP1 chemotaxis [fold change compared to IgG control]” value turned out to be 7.2 fold.

B2: CKLO03 (IgG1 wild type) (bispecific antibody, V domains shown)
VH 1: B1 VH with D31H, A54D, G56H, Y106H
VL 1: B1 VL with S49H, T56H, W92R
VH 2: QVQLVQSGAEVKKPGSSVKVSCKASGGTFSHYGISWVRQAPGQGLEWMGGVIPIFHTANYAQKFQGRVTITADESTSTAYMELSSLRSEDTAVYYCARYDAHYGELDFWGQGTLVTVSS
VL 2: EIVLTQSPATLSLSPGERATLSCRASQHVSDAYLAWYQQKPGQAPRLLIYDASDRAEGVPARFSGSGSGTDFTLTISSLEPEDFAVYYCHQYIHLHSFTFGQGTKVEIK
notes: CrossMab, IgG1 wild type with knobs-into-holes; also called CKLO3; 11K2H1503/11K2L1201//CNTO888H0695/CNTO888L0616
As to B2, the Kd amounted to 21.7 nM in assay [16] and 0.00685 nM in assay [17]. Moreover, in [18], the “fold weaker KD at pH 5.8 than at pH 7.4” value was over 1000 fold.

B3: CKLO01 (IgG1 wild type) (bispecific antibody, V domains shown)
VH 1: B1 VH with D31H, A54D, G56H, Y106H
VL 1: B1 VL with T26F, L33R, S49H, T56H
VH 2: B2 VH 2
VL 2: B2 VL 2
notes: also called CKLO1; 11K2H1503/11K2L1338//CNTO888H0695/CNTO888L0616
Regarding B3, in assay [19], the Kd worked out at 23.3 nM.

B4: CKLO04 (IgG1 wild type) (bispecific antibody, V domains shown)
VH 1: B1 VH with D31H, A54D, G56H, Y106H
VL 1: B1 VL with S49H, T56H, W92R
VH 2: B2 VH 2 with V51I, P53H
VL 2: B2 VL 2
notes: CrossMab, IgG1 wild type with knobs-into-holes; also called CKLO4; 11K2H1503/11K2L1201//CNTO888H0625/CNTO888L0616
B4: the binding result in assay [20] was “binds”.

These data come from US20240360208A1 (Hoffmann-La Roche, published 2024).
